Laboratory results published in IntAct's records for PubMed 25203555.

B1: Uncharacterized protein C1322.02 (Schizosaccharomyces pombe (strain ATCC 38366 / 972)), O94542 (parent)
chain: MIESKGETAPSLNLNDVNVEENDAAQSFAEKVQRFRYQMKVHAAPRQKTLHSFLKKDNANIHDFTKVEKPHIRSSKSKVSYNSITSRVTKYFEEKNNSVDQLHSESLTPLSFGHTIPKKKPLLMTASVSEDSRVRVSKRQFKSKVVHPEIAISIAKRHKPKFPLSDELMNVEPGFHHSNIGCQITPYLWISSFRTNVYYLIGNEGDLLSQQVPSISGELNMLRGVCTRIDDDNRYDIEQAGSCFGMSVFPTSDSGEESFTTLESDPIVNCEHDEKKVADNLLVPQVMCSSNISTFFRSPGGKKLYHYLWKNSNALRISSNDLLEILLKHGVYVSLDTLHSWLQERNVNFEK
partner: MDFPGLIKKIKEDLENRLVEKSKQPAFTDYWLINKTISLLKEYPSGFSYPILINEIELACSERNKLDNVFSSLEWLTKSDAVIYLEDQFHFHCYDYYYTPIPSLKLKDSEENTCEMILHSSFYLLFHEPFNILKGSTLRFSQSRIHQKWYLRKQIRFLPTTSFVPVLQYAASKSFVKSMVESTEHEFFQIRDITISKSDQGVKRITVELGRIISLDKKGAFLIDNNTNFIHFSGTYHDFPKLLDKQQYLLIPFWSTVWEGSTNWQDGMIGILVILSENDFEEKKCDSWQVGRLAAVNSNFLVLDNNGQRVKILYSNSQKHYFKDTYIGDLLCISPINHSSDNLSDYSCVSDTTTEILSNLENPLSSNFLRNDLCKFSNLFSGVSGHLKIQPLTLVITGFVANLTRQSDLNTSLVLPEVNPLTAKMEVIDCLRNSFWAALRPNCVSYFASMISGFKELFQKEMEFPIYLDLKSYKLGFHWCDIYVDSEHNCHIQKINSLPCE
B2: Uncharacterized protein C1322.02 (Schizosaccharomyces pombe (strain ATCC 38366 / 972)), O94542 (parent)
chain: B1 chain
partner: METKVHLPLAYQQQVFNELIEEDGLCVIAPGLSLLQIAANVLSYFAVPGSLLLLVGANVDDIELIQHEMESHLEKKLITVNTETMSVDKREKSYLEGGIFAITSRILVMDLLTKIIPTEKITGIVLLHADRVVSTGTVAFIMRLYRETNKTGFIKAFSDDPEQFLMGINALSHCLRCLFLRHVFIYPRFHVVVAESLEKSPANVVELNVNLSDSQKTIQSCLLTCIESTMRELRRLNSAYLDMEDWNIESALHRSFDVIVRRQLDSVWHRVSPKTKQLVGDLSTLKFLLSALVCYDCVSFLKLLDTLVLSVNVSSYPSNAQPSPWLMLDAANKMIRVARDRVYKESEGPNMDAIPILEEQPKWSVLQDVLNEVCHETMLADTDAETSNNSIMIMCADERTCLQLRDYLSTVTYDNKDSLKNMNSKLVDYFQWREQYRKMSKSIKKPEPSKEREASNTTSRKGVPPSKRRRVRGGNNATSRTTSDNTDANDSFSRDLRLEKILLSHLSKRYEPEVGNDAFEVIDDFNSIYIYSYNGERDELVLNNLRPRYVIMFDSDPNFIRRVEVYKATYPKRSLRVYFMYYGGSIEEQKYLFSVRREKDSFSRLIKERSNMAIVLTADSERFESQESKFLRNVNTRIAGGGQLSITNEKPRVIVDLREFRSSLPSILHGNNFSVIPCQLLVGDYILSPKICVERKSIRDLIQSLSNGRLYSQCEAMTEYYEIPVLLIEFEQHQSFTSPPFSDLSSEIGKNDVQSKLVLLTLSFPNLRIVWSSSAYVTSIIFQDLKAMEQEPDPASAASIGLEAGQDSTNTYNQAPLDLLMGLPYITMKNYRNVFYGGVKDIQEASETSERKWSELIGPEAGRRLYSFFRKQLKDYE

Variants of: B1
Details: with cdc24_schpo cdc24, O75004

Variant	effect of a mutation on the interaction
S289A;S290A;I292A;F295A;F296A	decreasing interaction strength

Variants of: B2
Details: with rad16_schpo rad16, P36617

Variant	effect of a mutation on the interaction
A155D;E172A	disrupting interaction strength
